Reference: patent publication US11666658B2, “Rifamycin analogs and antibody-drug conjugates thereof” (Regeneron Pharmaceuticals, Inc., priority 2018, dated 2023)

Legend:
[1] = tested on: parental HEK293 cells; test: Electrochemiluminescence (ECL) antibody binding assay on cells, non-specific binding control; parameters: species or system human
Experimental: The ability of anti-MSR1 monoclonal antibodies to bind to human or monkey MSR1 expressing cells was determined using electrochemiluminescence (ECL) based detection.
Two cell lines overexpressing either human or monkey MSR1 were generated. To generate the human MSR1 overexpressing cell line, human embryonic kidney (HEK) 293 cells were engineered by transduction with hygromycin resistant lentiviral vector encoding full length human MSR1 (hMSR1, amino acids M1-L451 of accession number NP_619729.1) with a C-terminal Myc tag. The resulting cell line is referred to as HEK293.Myc.hMSR1. Similarly, to generate the monkey MSR1 overexpressing cell line, HEK293 cells were engineered by transfection with the geneticin resistant expression plasmid encoding full length monkey MSR1 (Macaca fascicularis, mfMSR1, amino acids M1-L451 of accession number XP_005562705.1). The resulting cell line is referred to as HEK293.mfMSR1 cells. To measure the ability of antibodies to bind to endogenously expressed human MSR1, THP-1 human monocytic cells were treated with 200 nM of phorbol 12-myristate 13-acetate (PMA; Sigma, Cat #P8139) for 72 hours to induce high MSR1 expression prior to antibody binding.
Luminescence intensity, measured in relative light units (RLU), was recorded to indicate the binding intensity of each antibody at the range of concentrations.

[2] = molecular target: T1, MSR1 on differentiated THP-1 cells (Homo sapiens, UniProt P21757); test: Binding and internalization of cell-surface expressed MSR1 (confocal imaging); type: cell-based; settings: 10 μg/mL antibody
T1 construct: endogenously expressed human MSR1; endogenous in cells; host or cells: THP-1 cells treated with 200 nM PMA
T1 sequence (P21757 1-451): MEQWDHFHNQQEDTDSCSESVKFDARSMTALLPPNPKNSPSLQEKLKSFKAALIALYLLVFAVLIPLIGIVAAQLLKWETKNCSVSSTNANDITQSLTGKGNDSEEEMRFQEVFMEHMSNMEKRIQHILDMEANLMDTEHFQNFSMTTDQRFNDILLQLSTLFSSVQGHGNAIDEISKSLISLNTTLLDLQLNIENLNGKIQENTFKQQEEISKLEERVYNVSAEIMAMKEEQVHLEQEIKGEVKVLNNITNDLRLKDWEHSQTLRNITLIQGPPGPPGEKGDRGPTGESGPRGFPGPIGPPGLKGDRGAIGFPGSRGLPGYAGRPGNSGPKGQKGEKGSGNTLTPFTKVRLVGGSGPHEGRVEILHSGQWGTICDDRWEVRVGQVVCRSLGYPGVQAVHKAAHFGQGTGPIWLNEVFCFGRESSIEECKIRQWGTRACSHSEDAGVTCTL
Experimental: The THP-1 cells were allowed to differentiate for 4 days at 37° C. in 5% CO2. […] The remaining two plates were incubated at 37° C. for 1 hour followed by fixation and staining for 20 minutes using a solution of 4% PFA+5 μM DRAQ5 diluted in PBS (internalization plates). After fixation, all plates were washed once with PBS. […] The remaining plates were incubated with PBS only. Confocal images were acquired on the Opera Phenix (Perkin Elmer) at 40× magnification. […] The total binding at 4° C. (RFU values of 4° C. unquenched wells), total binding at 37° C.
For all calculations, background fluorescence from unstained wells was subtracted from every well. Total internalized RFU was calculated as follows: Total RFU of 37° C. unquenched samples—Surface RFU at 37° C. Surface RFU is defined as unquenched RFU at 37° C.-quenched RFU at 37° C.)/QE. QE (quenching efficiency) is defined as: 1-(Total RFU of 4° C. quenched sample/Total RFU of 4° C. unquenched sample). The % Internalization was determined from the following formula: (Total internalized RFU at 37° C./Total RFU at 37° C.)*100.

B1: H1H21234N-N297Q: "An anti-MSR1 antibody H1H21234N containing a N297Q mutation, which eliminates N-linked glycosylation of the Fc at this site" (antibody, V domains shown)
VH: QVQLQESGPGLVKPSETLSLTCTVTGGSISRNYWSWIRQPPGKGLEWIGYIYYSGSIDYNPSLKSRVTISVDTSKNQFSLKLSSMTAADTAVYYCARDRWNWKYGMDVWGQGTTVIVSS
VL: EIVLTQSPGTLSLSPGERATLSCRASQTVRNNYLAWYHQKPGQAPRLLIYGASSRATGIPDRFSGSGSGTDFTLTISRLEPEDFTVYYCHQYGNSPWTFGQGTKMEIKR
In the case of B1, the “Ratio of 11 nM Antibody Binding Signal (RLU) to isotype control, HEK293” value [1] is reported as 9, the “Total Binding at 4° C.” value ([2]; 4° C.) is reported as 1953248 and the “% Internalization” value ([2]; 37° C.) is reported as 13.3%. The “Total Binding at 37° C.” value ([2]; 37° C.) was 5451125 and the “Total Internalized RFU” value ([2]; 37° C.) was 722651 RFU.
